We go through six molecules from patent publication US20100150879A1 (published 2010).

No end group written: not given here.

Assay [1] has as its target T1, p120-catenin (p120ctn), endogenous (human, UniProt O60716 1-968, limits assumed).
T1 construct: Endogenous protein from cell extracts of human cells (hdMVEC, HEK293)
T1 sequence (looked up): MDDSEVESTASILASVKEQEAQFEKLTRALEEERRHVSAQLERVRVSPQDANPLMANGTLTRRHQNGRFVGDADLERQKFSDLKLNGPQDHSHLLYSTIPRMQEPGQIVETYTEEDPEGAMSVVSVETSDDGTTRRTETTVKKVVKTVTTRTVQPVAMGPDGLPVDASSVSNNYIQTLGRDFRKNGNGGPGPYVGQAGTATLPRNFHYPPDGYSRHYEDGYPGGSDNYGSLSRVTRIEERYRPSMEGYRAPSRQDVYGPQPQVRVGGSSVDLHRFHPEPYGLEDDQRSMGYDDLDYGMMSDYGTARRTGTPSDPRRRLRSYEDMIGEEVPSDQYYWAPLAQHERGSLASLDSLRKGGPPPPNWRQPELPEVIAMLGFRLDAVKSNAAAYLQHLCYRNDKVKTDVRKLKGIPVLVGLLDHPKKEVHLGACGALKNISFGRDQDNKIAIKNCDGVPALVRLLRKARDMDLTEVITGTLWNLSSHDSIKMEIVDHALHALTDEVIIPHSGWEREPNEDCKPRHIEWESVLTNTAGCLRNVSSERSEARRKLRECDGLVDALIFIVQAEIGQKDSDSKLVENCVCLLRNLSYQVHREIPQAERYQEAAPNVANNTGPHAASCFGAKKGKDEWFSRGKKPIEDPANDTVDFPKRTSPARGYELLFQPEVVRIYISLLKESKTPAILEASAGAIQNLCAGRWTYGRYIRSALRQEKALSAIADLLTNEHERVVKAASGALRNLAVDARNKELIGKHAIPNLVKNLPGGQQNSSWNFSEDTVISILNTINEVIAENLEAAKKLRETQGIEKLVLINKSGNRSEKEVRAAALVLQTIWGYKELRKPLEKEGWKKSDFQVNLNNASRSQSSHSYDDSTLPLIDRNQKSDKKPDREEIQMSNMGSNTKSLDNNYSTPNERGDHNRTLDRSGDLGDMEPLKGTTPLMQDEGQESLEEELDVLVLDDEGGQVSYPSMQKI
The assay is described as follows: GST pull-down.
Protocol: Pull-down assays were also carried out with GST-LPP3 fusion proteins. […] In these experiments, each of the membranes was probed for the presence of the GST-fusion protein.

The target of assay [2] is T2, γ-catenin (plakoglobin), endogenous (human, UniProt P14923 1-745).
T2 construct: Endogenous protein from cell extracts; also called gamma-catenin
T2 sequence (looked up): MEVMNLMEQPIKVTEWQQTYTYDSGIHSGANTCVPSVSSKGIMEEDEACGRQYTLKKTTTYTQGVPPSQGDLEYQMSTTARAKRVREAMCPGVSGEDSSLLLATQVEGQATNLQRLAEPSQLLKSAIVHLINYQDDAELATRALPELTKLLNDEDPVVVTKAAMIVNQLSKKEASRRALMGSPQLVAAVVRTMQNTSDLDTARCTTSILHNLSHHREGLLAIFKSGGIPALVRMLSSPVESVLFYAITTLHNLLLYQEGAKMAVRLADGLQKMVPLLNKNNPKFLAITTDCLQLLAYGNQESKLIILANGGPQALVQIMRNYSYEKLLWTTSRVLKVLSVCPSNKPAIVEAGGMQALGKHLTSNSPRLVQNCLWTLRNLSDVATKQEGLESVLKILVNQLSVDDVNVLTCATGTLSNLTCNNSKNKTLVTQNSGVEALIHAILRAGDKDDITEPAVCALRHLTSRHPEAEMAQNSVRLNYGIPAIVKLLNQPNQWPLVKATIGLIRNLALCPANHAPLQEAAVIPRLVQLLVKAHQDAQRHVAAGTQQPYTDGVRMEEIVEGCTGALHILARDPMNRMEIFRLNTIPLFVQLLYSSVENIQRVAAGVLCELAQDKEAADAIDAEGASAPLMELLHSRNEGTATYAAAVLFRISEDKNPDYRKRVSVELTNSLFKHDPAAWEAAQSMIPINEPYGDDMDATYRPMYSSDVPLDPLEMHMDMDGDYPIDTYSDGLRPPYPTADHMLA
The assay is described as follows: immunoprecipitation and western blot, HEK293 cells expressing HA-LPP3.
Protocol: (§1) For immunoprecipitation experiments, cells were rinsed with cold phosphate buffered saline (PBS), pH 7.4 and solubilized with complete cell lysis buffer (50 mM HEPES, pH 7.5; 150 mM NaCl; 1% TRITON X-100; 1 mM calcium chloride; 1 mM magnesium chloride; 1 mM sodium orthovanadate; 25 mM sodium fluoride; 1 mM sodium pyrosphosphate; 1 mM phenylmethylsulfonyl fluoride (PMSF); 10 μg/ml aprotinin; 10 μg/ml leupeptin; 1 μg/ml pepstatin-A) or with modified RIPA buffer (20 mM Tris, pH 7.5; 0.1% SDS; 0.25% sodium deoxycholate; 1% TRITON X-100; 150 mM sodium chloride; 1 mM sodium pyrosphosphate; 25 mM sodium fluoride; 1 mM sodium orthovanadate; 5 mM magnesium chloride; 1 mM calcium chloride; 1 μg/ml pepstatin; 1 mM phenylmethylsulfonyl fluoride; 1 μg/ml leupeptin) at 4° C. for 30 minutes. Cell extracts were centrifuged at ˜21,000×g for 30 minutes at 4° C., pre-adsorbed, and immunoprecipitated using specific antibodies. Immune complexes were washed 4-5 times with lysis buffer or with cold immunoprecipitation wash buffer (50 mM HEPES, pH 7.5; 150 mM NaCl; 0.5% NP-40; 1 mM calcium chloride; 1 mM magnesium chloride). SEPHAROSE-bound immune complexes were boiled in 1× Lammeli reducing sample buffer and resolved by SDS-PAGE.

Assay [3] addresses T3, β-catenin, endogenous (human, UniProt P35222 2-781).
T3 construct: Endogenous protein from cell extracts; also called beta-catenin
T3 sequence (looked up): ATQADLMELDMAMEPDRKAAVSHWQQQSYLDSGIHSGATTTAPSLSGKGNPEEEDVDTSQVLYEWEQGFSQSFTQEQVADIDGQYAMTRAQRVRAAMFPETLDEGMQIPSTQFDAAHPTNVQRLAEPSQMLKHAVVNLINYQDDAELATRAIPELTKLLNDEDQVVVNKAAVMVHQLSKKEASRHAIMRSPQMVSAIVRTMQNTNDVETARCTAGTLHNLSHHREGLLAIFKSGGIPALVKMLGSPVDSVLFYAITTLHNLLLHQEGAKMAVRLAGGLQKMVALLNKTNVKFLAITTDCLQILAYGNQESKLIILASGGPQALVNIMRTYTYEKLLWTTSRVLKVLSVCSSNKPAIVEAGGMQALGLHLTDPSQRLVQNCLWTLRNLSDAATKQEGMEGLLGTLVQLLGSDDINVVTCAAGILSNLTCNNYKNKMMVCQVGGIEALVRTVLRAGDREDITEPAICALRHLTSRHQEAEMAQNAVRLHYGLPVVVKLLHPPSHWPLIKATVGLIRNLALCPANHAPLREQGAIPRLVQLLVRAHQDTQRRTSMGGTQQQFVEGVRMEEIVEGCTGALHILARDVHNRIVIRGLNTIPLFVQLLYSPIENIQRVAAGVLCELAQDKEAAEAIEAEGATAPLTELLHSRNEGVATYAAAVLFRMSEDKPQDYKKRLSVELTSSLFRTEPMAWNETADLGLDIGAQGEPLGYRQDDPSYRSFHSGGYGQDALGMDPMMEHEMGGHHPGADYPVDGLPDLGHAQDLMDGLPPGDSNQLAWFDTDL
The description is as above.
Protocol: as §1

Assay [4] addresses T4, VE-cadherin, endogenous in hdMVEC (human, UniProt P33151 48-784).
T4 construct: Endogenous protein from confluent EC extracts
T4 sequence (looked up): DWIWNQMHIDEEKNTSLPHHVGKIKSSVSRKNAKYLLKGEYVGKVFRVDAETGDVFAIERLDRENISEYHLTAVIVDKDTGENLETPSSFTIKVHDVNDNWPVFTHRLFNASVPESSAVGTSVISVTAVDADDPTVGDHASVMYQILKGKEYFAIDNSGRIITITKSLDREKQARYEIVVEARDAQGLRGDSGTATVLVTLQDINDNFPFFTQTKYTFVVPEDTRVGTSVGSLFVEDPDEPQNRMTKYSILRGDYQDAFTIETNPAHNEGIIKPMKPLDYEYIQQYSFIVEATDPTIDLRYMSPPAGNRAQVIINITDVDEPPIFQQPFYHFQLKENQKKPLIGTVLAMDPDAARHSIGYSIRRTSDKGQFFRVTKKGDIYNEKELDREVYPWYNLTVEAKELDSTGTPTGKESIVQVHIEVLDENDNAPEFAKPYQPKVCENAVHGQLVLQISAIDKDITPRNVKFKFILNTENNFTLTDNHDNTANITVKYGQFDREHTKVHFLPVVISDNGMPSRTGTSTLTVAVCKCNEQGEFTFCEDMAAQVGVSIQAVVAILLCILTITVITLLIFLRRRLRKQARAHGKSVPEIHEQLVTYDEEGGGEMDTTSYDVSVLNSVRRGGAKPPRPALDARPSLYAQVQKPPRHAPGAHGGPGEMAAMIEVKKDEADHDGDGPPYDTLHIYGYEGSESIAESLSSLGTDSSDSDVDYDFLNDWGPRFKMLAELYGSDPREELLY
Put plainly: co-immunoprecipitation from confluent EC extracts.
Protocol: Biochemical Experiments. For immunoprecipitation experiments, cells were rinsed with cold phosphate buffered saline (PBS), pH 7.4 and solubilized with complete cell lysis buffer (50 mM HEPES, pH 7.5; 150 mM NaCl; 1% TRITON X-100; 1 mM calcium chloride; 1 mM magnesium chloride; 1 mM sodium orthovanadate; 25 mM sodium fluoride; 1 mM sodium pyrosphosphate; 1 mM phenylmethylsulfonyl fluoride (PMSF); 10 μg/ml aprotinin; 10 μg/ml leupeptin; 1 μg/ml pepstatin-A) or with modified RIPA buffer (20 mM Tris, pH 7.5; 0.1% SDS; 0.25% sodium deoxycholate; 1% TRITON X-100; 150 mM sodium chloride; 1 mM sodium pyrosphosphate; 25 mM sodium fluoride; 1 mM sodium orthovanadate; 5 mM magnesium chloride; 1 mM calcium chloride; 1 μg/ml pepstatin; 1 mM phenylmethylsulfonyl fluoride; 1 μg/ml leupeptin) at 4° C. for 30 minutes. Cell extracts were centrifuged at ˜21,000×g for 30 minutes at 4° C., pre-adsorbed, and immunoprecipitated using specific antibodies. Immune complexes were washed 4-5 times with lysis buffer or with cold immunoprecipitation wash buffer (50 mM HEPES, pH 7.5; 150 mM NaCl; 0.5% NP-40; 1 mM calcium chloride; 1 mM magnesium chloride). SEPHAROSE-bound immune complexes were boiled in 1× Lammeli reducing sample buffer and resolved by SDS-PAGE. […]

Assay [5] addresses T3, β-catenin, endogenous. The assay is described as follows: co-immunoprecipitation from sub-confluent ECs transfected with FLAG-tagged PTEN.
Protocol: Cell extracts were centrifuged at ˜21,000×g for 30 minutes at 4° C., pre-adsorbed, and immunoprecipitated using specific antibodies. Immune complexes were washed 4-5 times with lysis buffer or with cold immunoprecipitation wash buffer (50 mM HEPES, pH 7.5; 150 mM NaCl; 0.5% NP-40; 1 mM calcium chloride; 1 mM magnesium chloride). SEPHAROSE-bound immune complexes were boiled in 1× Lammeli reducing sample buffer and resolved by SDS-PAGE.
It was initially determined whether PTEN binds to β-catenin in sub-confluent ECs.
The target of assay [6] is T3, β-catenin, endogenous. Put plainly: interaction assay in extracts of ECs transfected with LPP3 constructs (method not spelled out).
Assay [7] addresses T5, β1-integrin, endogenous in hdMVEC (human, UniProt P05556 21-798).
T5 construct: Immunoprecipitated from hdMVEC extracts and blotted for far western analysis; also called beta1-integrin
Put plainly: far western, GST-LPP3-C-cyto as bait on blotted immunoprecipitates from hdMVEC.

In assay [8] the target is T2, γ-catenin (plakoglobin), endogenous. The assay is described as above.
The target of assay [9] is T3, β-catenin, endogenous. The description is as above.
The target of assay [10] is T4, VE-cadherin, endogenous in hdMVEC. The description is as above.

T5 sequence (P05556 21-798): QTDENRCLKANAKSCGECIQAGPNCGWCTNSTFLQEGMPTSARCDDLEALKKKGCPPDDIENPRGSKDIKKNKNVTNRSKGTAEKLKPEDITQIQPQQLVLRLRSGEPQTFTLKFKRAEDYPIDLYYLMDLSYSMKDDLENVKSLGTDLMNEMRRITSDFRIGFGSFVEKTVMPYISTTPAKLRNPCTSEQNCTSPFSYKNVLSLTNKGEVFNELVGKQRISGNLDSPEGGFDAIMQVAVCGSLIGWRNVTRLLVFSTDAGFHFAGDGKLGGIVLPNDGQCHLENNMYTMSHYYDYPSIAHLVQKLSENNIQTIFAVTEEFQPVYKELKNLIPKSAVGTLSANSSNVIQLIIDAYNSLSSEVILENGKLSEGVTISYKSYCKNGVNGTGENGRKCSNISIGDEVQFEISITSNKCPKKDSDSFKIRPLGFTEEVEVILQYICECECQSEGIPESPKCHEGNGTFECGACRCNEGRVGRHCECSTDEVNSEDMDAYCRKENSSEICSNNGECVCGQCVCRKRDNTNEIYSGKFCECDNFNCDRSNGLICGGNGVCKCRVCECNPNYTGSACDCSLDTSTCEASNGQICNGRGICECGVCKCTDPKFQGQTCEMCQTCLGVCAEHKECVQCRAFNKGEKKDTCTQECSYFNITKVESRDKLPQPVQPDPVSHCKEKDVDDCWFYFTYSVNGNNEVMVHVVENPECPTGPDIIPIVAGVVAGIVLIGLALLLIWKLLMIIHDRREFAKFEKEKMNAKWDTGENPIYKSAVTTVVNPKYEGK

B1: GST-N-cyto fusion protein (GST fused to the N-terminal cytoplasmic domain of LPP3) (other)
chain: QNYKYDKAIVPESKNGGSPALNNNPRRSGSK
notes: Expressed in E. coli; not shown: glutathione-S-transferase (GST)
Take B1: in assay [1], the binding result is “no binding”.

B2: HA-tagged human wild-type LPP3 (pLNCX2-HA-WT-hLPP3) (enzyme)
chain: YPYDVPDYAYPYDVPDYAYPYDVPDYAMQNYKYDKAIVPESKNGGSPALNNNPRRSGSKRVLLICLDLFCLFMAGLPFLIIETSTIKPYHRGFYCNDESIKYPLKTGETINDAVLCAVGIVIAILAIITGEFYRIYYLKKSRSTIQNPYVAALYKQVGCFLFGCAISQSFTDIAKVSIGRLRPHFLSVCNPDFSQINCSEGYIQNYRCRGDDSKVQEARKSFFSGHASFSMYTMLYLVLYLQARFTWRGARLLRPLLQFTLIMMAFYTGLSRVSDHKHHPSDVLAGFAQGALVACCIVFFVSDLFKTKTTLSLPAPAIRKEILSPVDIIDRNNHHNMM
notes: whole, on cells; Three copies of the HA tag are fused in-frame at the N-terminus; also called HA-LPP3
For the molecule B2, the binding result in [2] is recorded as “no binding”; in the assay with β-catenin, endogenous [3], “no binding”.

B3: Lipid Phosphate Phosphatase-3 (LPP3), endogenous in human dermal microvascular endothelial cells (enzyme, UniProt O14495 1-311, looked up)
chain: MQNYKYDKAIVPESKNGGSPALNNNPRRSGSKRVLLICLDLFCLFMAGLPFLIIETSTIKPYHRGFYCNDESIKYPLKTGETINDAVLCAVGIVIAILAIITGEFYRIYYLKKSRSTIQNPYVAALYKQVGCFLFGCAISQSFTDIAKVSIGRLRPHFLSVCNPDFSQINCSEGYIQNYRCRGDDSKVQEARKSFFSGHASFSMYTMLYLVLYLQARFTWRGARLLRPLLQFTLIMMAFYTGLSRVSDHKHHPSDVLAGFAQGALVACCIVFFVSDLFKTKTTLSLPAPAIRKEILSPVDIIDRNNHHNMM
notes: Endogenous protein immunoprecipitated from hdMVEC lysates; also called phosphatidic acid phosphatase-2b; PAP2b
As to B3, the binding result in assay [4] was “no binding”.

B4: FLAG-tagged wild-type PTEN (enzyme)
chain: not shown
notes: Gift construct, transfected into sub-confluent ECs; also called WT-PTEN; not shown: FLAG tag
Take B4: the binding result with β-catenin, endogenous [5] was “no binding”.

B5: Lymphoid Enhancer Binding Factor 1 (LEF-1), endogenous in hdMVEC (other, human, UniProt Q9UJU2 1-399, looked up)
chain: MPQLSGGGGGGGGDPELCATDEMIPFKDEGDPQKEKIFAEISHPEEEGDLADIKSSLVNESEIIPASNGHEVARQAQTSQEPYHDKAREHPDDGKHPDGGLYNKGPSYSSYSGYIMMPNMNNDPYMSNGSLSPPIPRTSNKVPVVQPSHAVHPLTPLITYSDEHFSPGSHPSHIPSDVNSKQGMSRHPPAPDIPTFYPLSPGGVGQITPPLGWQGQPVYPITGGFRQPYPSSLSVDTSMSRFSHHMIPGPPGPHTTGIPHPAIVTPQVKQEHPHTDSDLMHVKPQHEQRKEQEPKRPHIKKPLNAFMLYMKEMRANVVAECTLKESAAINQILGRRWHALSREEQAKYYELARKERQLHMQLYPGWSARDNYGKKKKRKREKLQESASGTGPRMTAAYI
notes: Endogenous protein from EC extracts
As to B5, the binding result in the assay with β-catenin, endogenous [6] is “binds”.

B6: GST-LPP3-C-cyto fusion protein (GST fused to the C-terminal cytoplasmic domain of LPP3) (other)
chain: SDLFKTKMTLSLPAPAIRKEILSPVDIIDRNNHHNMM
modifications: also: fused to glutathione-S-transferase (GST), linker not given here
notes: Expressed in E. coli; ran at 32 kDa; also called GST-C-cyto; GST-CC; not shown: glutathione-S-transferase (GST)
In the case of B6, the binding result in assay [7] is “no binding (tested: 2.0 µg/ml)”; in [8], “no binding (tested: 2.0 µg/ml)”; in the assay with β-catenin, endogenous [9], “no binding (tested: 2.0 µg/ml)”; in [10], “no binding (tested: 2.0 µg/ml)”.
